Test results published in publication PMC3953818, “Characterization and regulation of an additional actin-filament-binding site in large isoforms of the stereocilia actin-bundling protein espin” (Journal of Cell Science, 2014).
Like-named read-outs stand apart in the source and are kept apart here. Blank lines part the entries; values can stand above or below the molecule they belong to.

Columns and labels:
monomeric actin (rabbit) = monomeric actin (rabbit) (UniProt P68135)
[1] = biological target: preformed filaments of rabbit skeletal muscle actin (rabbit) (UniProt P68135); experiment: co-sedimentation; purified GST fusion proteins incubated with preformed filaments of rabbit skeletal muscle actin (0.4 mg/ml) for 60 min at 37°C in 10 mM HEPES, 0.1 M KCl, 1 mM dithiothreitol, 0.5 mM ATP, 1 mM MgCl2, 1 mM NaN3, pH 7.4; 150,000 g for 60 min at 4°C; pellet and supernatant on Coomassie-stained SDS gels
F-actin [2] = biological target: F-actin (UniProt P68133); settings: cited from earlier work
F-actin [3] = biological target: F-actin (UniProt P68133); settings: cited from earlier work; remark: listed apart in the source
[4] = biological target: His-tagged ankyrin repeat domain (M1-R339 of human espin 1) (human) (UniProt B1AK53); experiment: pull-down; competition: the same pull-down of His–(1-339) on glutathione beads loaded with GST–(340-854), without or with synthetic peptide at 30 µM
F-actin [5] = biological target: F-actin (UniProt P68133); settings: cited from earlier work; remark: listed apart in the source
[6] = biological target: T1, GST–(340-854) human espin 1 fragment missing the V462-K487 xAB-containing peptide (human, UniProt B1AK53 340-854, missing the V462-K487 xAB-containing peptide (ΔxAB)); experiment: pull-down; His-tagged ankyrin repeat domain incubated with glutathione-Sepharose beads preloaded with GST or GST–human espin 340–854 fragment in 5 mM HEPES, 10 mM imidazole, 0.1 M KCl, 1 mM dithiothreitol, 3 mM NaN3, pH 7.4, 60 min at 22°C; five washes at 4°C; Coomassie-stained SDS gels; settings: both partners purified
T1 construct: human espin 1, residues D340-Y854 with V462-K487 deleted; also called ΔxAB; source: E. coli BL21 Star (DE3), purified (glutathione-Sepharose 4B), loaded on glutathione beads
T1 sequence (looked up): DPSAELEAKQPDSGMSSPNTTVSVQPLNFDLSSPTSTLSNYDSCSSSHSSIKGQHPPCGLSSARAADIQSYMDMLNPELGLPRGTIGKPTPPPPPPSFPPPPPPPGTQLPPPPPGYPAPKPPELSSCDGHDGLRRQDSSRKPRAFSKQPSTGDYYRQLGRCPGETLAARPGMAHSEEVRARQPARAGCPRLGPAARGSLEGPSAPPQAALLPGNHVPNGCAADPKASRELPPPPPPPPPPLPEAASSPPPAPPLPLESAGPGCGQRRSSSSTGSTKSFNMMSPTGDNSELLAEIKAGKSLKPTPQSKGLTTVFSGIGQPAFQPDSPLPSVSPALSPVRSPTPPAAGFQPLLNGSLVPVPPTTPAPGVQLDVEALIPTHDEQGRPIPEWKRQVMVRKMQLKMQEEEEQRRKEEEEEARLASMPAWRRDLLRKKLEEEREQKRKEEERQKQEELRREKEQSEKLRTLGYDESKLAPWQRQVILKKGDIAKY

Molecule: espin 1 339-720 (from UniProt Q63618)
- Kd (F-actin [2]): 1000 nM

Molecule: espin 1 ΔN338 ΔN338 (from UniProt Q63618)
- Kd (F-actin [3]): 70 nM

Molecule: espin smallest isoform (from UniProt Q63618)
- Kd (F-actin [5]): 220 nM

Now from value to molecule:

- inhibition of the rate of pyrene-actin polymerization relative to the GST control, concentration series up to 5 µM (monomeric actin (rabbit)): 11%
- percent of the fusion protein recovered in the high-speed pellet with F-actin [1]: 42%
Molecule: GST fusion with peptide V130-K155 of rat espin 2B (domain or fragment)

- percent of the His–ankyrin repeat domain still bound to GST–340-854 with 30 µM M3 [4]: 8%
Molecule: MYO3A tail homology domain I peptide (M3)

- binding result [6]: binds
B1: His-tagged ankyrin repeat domain (M1-R339 of human espin 1) (domain or fragment, UniProt B1AK53 1-339, looked up)
chain: MALEQALQAARQGELDVLRSLHAAGLLGPSLRDPLDALPVHHAARAGKLHCLRFLVEEAALPAAARARNGATPAHDASATGHLACLQWLLSQGGCRVQDKDNSGATVLHLAARFGHPEVVNWLLHHGGGDPTAATDMGALPIHYAAAKGDFPSLRLLVEHYPEGVNAQTKNGATPLYLACQEGHLEVTQYLVQECGADPHARAHDGMTPLHAAAQMGHSPVIVWLVSCTDVSLSEQDKDGATAMHFAASRGHTKVLSWLLLHGGEISADLWGGTPLHDAAENGELECCQILVVNGAELDVRDRDGYTAADLSDFNGHSHCTRYLRTVENLSVEHRVLSR
notes: human espin 1, ankyrin repeat domain, residues M1-R339; Expressed from ProEX HTa or HTb; also called His–(1-339); His–ankyrin repeat domain; source: E. coli BL21 Star (DE3), purified (Ni-NTA agarose); not shown: His tag, N-terminal, kept
